The assay deals with T1, peptide DQ, ApCPEB PLD residues 121-140 with an N-terminal dansyl moiety (Aplysia californica, dansyl moiety (D*) on the N-terminus).
T1 construct: source: synthetic peptide, bought: GenScript
T1 peptide: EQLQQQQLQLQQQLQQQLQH
Put plainly: FRET or BRET + other: 1D 1H NMR; 20-mer peptides at 5 °C in 10 mM KH2PO4; excitation of Trp at 280 nm, dansyl emission at 530-550 nm; 1D 1H NMR with DSS as concentration standard. The conditions noted are these: both partners purified.

From publication PMC7953810, “Divergent CPEB prion-like domains reveal different assembly mechanisms for a generic amyloid-like fold” (BMC Biology, 2021) come the findings set out here.

B1: peptide QW, ApCPEB PLD residues 121-140 with a C-terminal Trp (peptide)
peptide: EQLQQQQLQLQQQLQQQLQHW
notes: Trp added at the C-terminus (excited at 280 nm as the fluorescence donor); Wild-type stretch with one added Trp as a fluorescence probe; source: synthetic peptide, bought: GenScript
On to B1, for which the binding result is reported as “binds”.

B2: peptide WQ, ApCPEB PLD residues 121-140 with an N-terminal Trp (peptide)
peptide: WEQLQQQQLQLQQQLQQQLQH
notes: Trp added at the N-terminus (excited at 280 nm as the fluorescence donor); Wild-type stretch with one added Trp as a fluorescence probe; source: synthetic peptide, bought: GenScript
As to B2, the binding result is given as “binds”.
